Key:
[1] = test system: KRAS wild-type or mutant colorectal, pancreatic, lung cancer and ovarian cancer cells (HT-29, DLD-1, HCT-116, SW620, Bx-pc3, L3.6pl, AsPC-1, H226, A549 …); test: SRB (sulforhodamine B) cell growth assay in cancer cell lines; type: cell-based; conditions: 3.2, 16, 80, 400, 2000 or 10,000 nM, 72 hours; compared to negative control NIH3T3 cells; FIG. 1A
Protocol: To investigate the anticancer activity of the recombinant stabilized galectin-9 protein having the amino acid sequence of SEQ ID NO: 1, cell growth and apoptosis were observed after treatment of the recombinant protein in cancer cell lines having a KRAS wild type or KRAS gene mutation.
Specifically, to investigate the anticancer activity of the recombinant stabilized galectin-9 protein having the amino acid sequence of SEQ ID NO: 1, the protein was treated on cancer cell lines with KRAS wild-type or KRAS gene mutation, and the following cell lines were used: HT-29 for KRAS wild-type pancreatic cancer, DLD-1, HCT-116, and SW620 for KRAS gene-mutated colon cancer, Bx-pc3 for KRAS wild-type pancreatic cancer, L3.6pl and AsPC-1 for KRAS gene-mutated pancreatic cancer, H226 for KRAS wild-type lung cancer, A549 for KRAS gene-mutated lung cancer, SKOV3ip1 for KRAS wild-type ovarian cancer, and SKOV3 for KRAS gene-mutated ovarian cancer, and the cells were seeded at 5×10^3 cells per well in a 96-well plate and cultured at 37° C. for one day, and then the recombinant protein was treated with concentrations of 3.2, 16, 80, 400, 2000, or 10,000 nM per well, and cultured for 72 hours. After 72 hours of incubation, the cell growth was confirmed using the SRB (sulforhodamine B) assay kit (Abcam, US) according to the manufacturer's instructions. […]

[2] = test system: DLD-1 cells; test: Annexin-APC and 7-AAD apoptosis analysis by flow cytometer; type: cell-based; conditions: 1,000 nM, 24 or 48 hours; FIG. 1B
Protocol: In addition, DLD-1 cells, a colorectal cancer cell line with KRAS gene mutation, were seeded at a density of 1×10^5 cells per well in a 6-well plates, cultured for 1 day at 37° C. and the recombinant protein from <Preparation Example 1> was then added to each well at a concentration of 1,000 nM, and the cells were further cultured for either 24 or 48 hours. After washing the cultured cells twice with cold PBD, the cells were stained using Annexin-APC and 7-AAD apoptosis kit (Biolegend, US) according to the manufacturer's instructions, and apoptosis was analyzed using a flow cytometer (CytoFLEX, Beckmancoulter) (FIG. 1B).

[3] = test system: DLD-1 cells; test: colony formation assay; type: cell-based; conditions: 0, 50, 100, 250, 500, 1000 nM, 10 days, 3% v/v Matrigel; FIG. 2
Protocol: To investigate the anti-cancer activity of the recombinant stabilized galectin-9 protein having the amino acid sequence of SEQ ID NO: 1, the proliferation of cancer cells by colony formation assay was analyzed by treating KRAS mutant colorectal cancer cell lines with the recombinant protein.
Specifically, DLD-1 cells, a colorectal cancer cell line with KRAS gene mutation, were seeded in 6-well plates at 5×10^3 cells per well in a medium containing 3% v/v Matrigel, and then treated with the recombinant protein from <Preparation Example 1> at concentrations of 0, 50, 100, 250, 500, 1000 nM and incubated for 10 days. Then, after washing with phosphate-buffered saline, colonies were stained with a solution of 0.05% crystal violet, 1% formaldehyde, and 1% methanol in phosphate-buffered saline for 20 minutes at room temperature. The plate was then washing with distilled water and dried at room temperature for 16 hours. The number of colonies was measured by capturing images of the stained and dried plates and analyzing the images (FIG. 2).

[4] = body weight changes in pancreatic cancer-induced mouse model; type: in vivo, mice; conditions: intraperitoneal, 50 days, FIG. 4
Protocol: (§1) To investigate the anticancer activity of the recombinant stabilized galectin-9 protein having the amino acid sequence SEQ ID NO: 1, KRAS gene mutant pancreatic cancer cell line MIA PaCa-2 cells were transplanted and grown for two weeks to form pancreatic tumor tissue subcutaneously in mice, and the mice were then administered with the recombinant protein, and changes in body weight were monitored.
(§2) Specifically, the experiments were conducted in accordance with the Guide for the Care and Use of Laboratory Animals (NRC), and the mice were managed accordingly. After collecting mice with an average pancreatic cancer size of 200 nm 3, they were randomly classified into 5 group.
(§3) The experimental groups were classified into five groups (5 mice per group) as follows: control group (PBS), low-dose recombinant stabilized galectin-9 protein administration group (seal-9 0.5 mg/kg), high-dose recombinant stabilized galectin-9 protein administration group (seal-9 5 mg/kg), gemcitabine group (Gemcitabine 50 mg/kg), and combination of seal-9 and gemcitabine (seal-9 5 mg/kg+Gemcitabine 50 mg/kg). The mice were administered with seal-9 the given concentrations twice a week and/or gemcitabine once a week by intraperitoneal injection for 50 days, while monitoring changes in body weight (FIG. 4).

[5] = test system: KRAS gene mutant pancreatic cancer (MIA PaCa-2) mouse model; test: pancreatic cancer tissue size (MRI) in pancreatic cancer-induced mouse model; type: in vivo, mice; conditions: 50 days, FIG. 5; for size of pancreatic cancer tissue compared to the control group: intraperitoneal
Protocol: as §1, §2, §3
To investigate the anticancer activity of the recombinant stabilized galectin-9 protein having the amino acid sequence of SEQ ID NO: 1, the KRAS gene mutant pancreatic cancer (MIA PaCa-2) mouse model was established by using the same method described in Example <2-1> above, and seal-9 and/or gemcitabine were administered into the mice for 50 days and the change in the size of the pancreatic cancer tissue was evaluated using magnetic resonance imaging (MRI) (FIG. 5).

[6] = test system: KRAS gene mutated pancreatic cancer (MIA PaCa-2) mouse model; test: survival rate in pancreatic cancer-induced mouse model; type: in vivo, mice; conditions: 50 days, tumor size of 1700 mm3 or more considered as time of death, FIG. 6
Protocol: as §1, §2, §3
In this case, a pancreatic cancer tissue size of 1700 mm3 or more was considered as the time of death.

[7] = high-dose, seal-9 5 mg/kg twice a week
[8] = low-dose, seal-9 0.5 mg/kg twice a week

B1: seal-9: recombinant stabilized galectin-9 protein of SEQ ID NO: 1; linker region deleted, CCRD positions 1 to 10 deleted, Ala at position 13 substituted with Pro (protein)
chain: MAFSGSQAPYLSPAVPFSGTIQGGLQDGLQITVNGTVLSSSGTRFAVNFQTGFSGNDIAFHFNPRFEDGGYVVCNTRQNGSWGPEERKTHMPFQKGMPFDLCFLVQSSDFKVMVNGILFVQYFHRVPFHRVDTISVNGSVQLSYISFQHPPYPMPFITTILGGLYPSKSILLSGTVLPSAQRFHINLCSGNHIAFHLNPRFDENAVVRNTQIDNSWGSEERSLPRKMPFVRGQSFSVWILCEAHCLKVAVDGQHLFEYYHRLRNLPTINRLEVGGDIQLTHVQT
modifications: sGal-9
notes: linker region deleted, CCRD positions 1 to 10 deleted, Ala at position 13 substituted with Pro
cell growth [1]: inhibited cell growth
apoptosis [2]: induced apoptosis
colony formation ability / proliferation of cancer cells [3]: inhibited the proliferation of cancer cells in a concentration-dependent manner
changes in body weight [4, 7]: no significant changes in body weight
changes in body weight [4, 8]: no significant changes in body weight
size of pancreatic cancer tissue compared to the control group [5, 7]: decreased significantly
size of pancreatic cancer tissue compared to the control group [5, 8]: decreased significantly
size of pancreatic cancer tissue, seal-9 compared with conventional chemotherapy ([5]; seal-9 0.5 or 5 mg/kg vs gemcitabine 50 mg/kg): superior effect at lower doses than conventional chemotherapy
survival rate ([6]; high-dose, seal-9 5 mg/kg): superior survival rates
survival rate ([6]; low-dose, seal-9 0.5 mg/kg): superior survival rates

Source: patent US20230414712A1, “PHARMACEUTICAL COMPOSITION FOR PREVENTING OR TREATING CANCER COMPRISING RECOMBINANT STABILIZED GALECTIN 9 PROTEIN” (GBIOLOGICS INC., priority 2020, published 2023)
